In the RNAGym collection of RNA variant scans (doi:10.1093/molbev/msab373):

B1: Azoarcus group I ribozyme (parent)
chain: GUGCCUUGCGCCGGGAAACCACGCAAGGGAUGGUGUCAAAUUCGGCGAAACCUAAGCGCCCGCCCGGGCGUAUGGCAACGCCGAGCCAAGCUUCGGCGCCUGCGCCGAUGAAGGUGUAGAGACUAGACGGCACCCACCUAAGGCAAACGCUAUGGUGAAGGCAUAGUCCAGGGAGUGGCGAAAGUCACACAAACCGG

Variants of: B1
Test: reverse-splicing fitness (ratio to wild type); higher = more active; in vitro selection; Mg2+ level not given
Procedure, shortened: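 An in vitro group I ribozyme library with randomized positions was T7-transcribed and gel-purified. In triplicate, 10 pmol RNA in EPPS pH 7.5 was reacted with 50 pmoles of a 30-nt RNA substrate for 1 h at 37 °C across several added MgCl2 levels (1–48 mM), then stopped with EDTA. Products were reverse transcribed from a substrate-complementary primer, PCR-amplified and sequenced (HiSeq 4000). Fitness is a variant's read proportion after selection over that before, normalised to wild type.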

| Variant | reverse-splicing fitness |
| --- | --- |
| C82A A111U A120G A145U C150G C169A U176C | 0.00995 |
| C82A A111U A120G A145U C150G C169A U176A | 0.0086 |
| C82A A111U A120C A145U C150U U176G | 0.00684 |
| C82A A111U A120C A145U C150U U176A | 0.0138 |
| C82A A111U A120C A145U C150U U176C | 0.0191 |
| C82A A111U A120C A145G C169A | 0.0113 |
| C82A A111U A120C A145G C169G | 0.0103 |
| C82A A111U A120C A145G C169U | 0.0142 |
| C82A A111U A120C C150G C169G | 0.00832 |
| C82A A111U A120C C150G C169A | 0.0101 |
| C82A A111U A120C C150G C169U | 0.0101 |
| C82A A111U A120G A145C C150A C169G U176A | 0.0253 |
| C82A A111U A120G A145C C150A C169G U176C | 0.0151 |
| C82A A111U A120G A145C C150A C169G U176G | 0.00564 |
| C82A A111U A120G A145G C169U U176C | 0.0167 |
| C82A A111U A120G A145G C169U U176G | 0.00504 |
| C82A A111U A120G A145G C169U U176A | 0.0211 |
| C82A A111U A120G A145C C169A | 0.0074 |
| C82A A111U A120G A145C C169U | 0.00838 |
| C82A A111U A120G A145C C169G | 0.0105 |
| C82A A111U A120C C150A U176C | 0.0239 |

| Variant | reverse-splicing fitness |
| --- | --- |
| C82A A111U A120C C150A U176G | 0.00881 |
| C82A A111U A120C C150A U176A | 0.0129 |
| C82A A111U A120G A145C C150G C169G U176C | 0.00725 |
| C82A A111U A120G A145C C150G C169G U176G | 0.00452 |
| C82A A111U A120G A145C C150G C169G U176A | 0.00863 |
| C82A A111U A120G A145G C150A C169A | 0.0112 |
| C82A A111U A120G A145G C150A C169U | 0.00929 |
| C82A A111U A120G A145G C150A C169G | 0.00912 |
| C82A A111U A120C A145U C150G C169G U176A | 0.00986 |
| C82A A111U A120C A145U C150G C169G U176G | 0.00698 |
| C82A A111U A120C A145U C150G C169G U176C | 0.00626 |
| C82A A111U A120G A145U C150U C169U U176C | 0.0148 |
| C82A A111U A120G A145U C150U C169U U176A | 0.0207 |
| C82A A111U A120G A145U C150U C169U U176G | 0.00524 |
| C82A A111U A120G A145U C150U C169G U176G | 0.00527 |
| C82A A111U A120G A145U C150U C169G U176C | 0.0147 |
| C82A A111U A120G A145U C150U C169G U176A | 0.0153 |
| C82A A111U A120C A145U C150A | 0.0107 |
| C82A A111U A120C A145U C150G | 0.00883 |
| C82A A111U A120C A145U C150U | 0.0216 |
| C82A A111U A120C A145U C150A C169G | 0.00953 |

| Variant | reverse-splicing fitness |
| --- | --- |
| C82A A111U A120C A145U C150A C169A | 0.0109 |
| C82A A111U A120C A145U C150A C169U | 0.0109 |
| C82A A111U A120C C150G C169U U176A | 0.00757 |
| C82A A111U A120C C150G C169U U176G | 0.0062 |
| C82A A111U A120C C150G C169U U176C | 0.011 |
| C82A A111U A120G A145C C150A C169U U176G | 0.0059 |
| C82A A111U A120G A145C C150A C169U U176C | 0.0122 |
| C82A A111U A120G A145C C150A C169U U176A | 0.0189 |
| C82A A111U A120C A145U | 0.0284 |
| C82A A111U A120G A145G C150G C169G U176A | 0.0109 |
| C82A A111U A120G A145G C150G C169G U176G | 0.00619 |
| C82A A111U A120G A145G C150G C169G U176C | 0.0107 |
| C82A A111U A120G A145G C150U C169A U176C | 0.0165 |
| C82A A111U A120G A145G C150U C169A U176G | 0.00668 |
| C82A A111U A120G A145G C150U C169A U176A | 0.0144 |
| C82A A111U A120G A145G C150A U176C | 0.0209 |
| C82A A111U A120G A145G C150A U176G | 0.00816 |
| C82A A111U A120G A145G C150A U176A | 0.0111 |
| C82A A111U A120C C150U C169G U176G | 0.00747 |
| C82A A111U A120C C150U C169G U176A | 0.0159 |
| C82A A111U A120C C150U C169G U176C | 0.0205 |

| Variant | reverse-splicing fitness |
| --- | --- |
| C82A A111U A120G A145C C150G C169A | 0.00846 |
| C82A A111U A120G A145C C150G C169G | 0.00674 |
| C82A A111U A120G A145C C150G C169U | 0.00766 |
| C82A A111U A120G A145G C150A | 0.0095 |
| C82A A111U A120G A145G C150U | 0.0133 |
| C82A A111U A120G A145G C150G | 0.00699 |
| C82A A111U A120C C150A C169U U176C | 0.0167 |
| C82A A111U A120C C150A C169U U176G | 0.00905 |
| C82A A111U A120C C150A C169U U176A | 0.0186 |
| C82A A111U A120C A145U C150A C169U U176A | 0.0174 |
| C82A A111U A120C A145U C150A C169U U176C | 0.0133 |
| C82A A111U A120C A145U C150A C169U U176G | 0.00856 |
| C82A A111U A120G A145G C150A C169U U176A | 0.0197 |
| C82A A111U A120G A145G C150A C169U U176C | 0.0167 |
| C82A A111U A120G A145G C150A C169U U176G | 0.0069 |
| C82A A111U A120C C169G U176G | 0.00706 |
| C82A A111U A120C C169G U176A | 0.0231 |
| C82A A111U A120C C169G U176C | 0.0298 |
| C82A A111U A120G A145G C150A C169A U176C | 0.0248 |
| C82A A111U A120G A145G C150A C169A U176A | 0.0191 |
| C82A A111U A120G A145G C150A C169A U176G | 0.00817 |
